# Source: US20210355194A1 (TWIST BIOSCIENCE, published 2021)
# Substitutions are numbered along the chain they refer to.
# B1: variant 5-28 (Fc fusion)
# VHH: EVQLVESGGGLVQPGGSLRLSCAASGGTFSVFAMGWFRQVPGKERELVAEITAGGSTYYADSVKGRFTISADNSKNTAYLQMNSLKPEDTAVYYCAVDGPFGWGQGTLVTVSS
# B2: variant 5-1 (Fc fusion)
# VHH: EVQLVESGGGLVQPGGSLRLSCAASGGTFSSIGMGWFRQAPGKEREFVAAISWDGGATAYADSVKGRFTISADNSKNTAYLQMNSLKPEDTAVYYCAKEDVGKPFDWGQGTLVTVSS
# notes: VHH-Fc
# B3: variant 5-22 (Fc fusion)
# VHH: EVQLVESGGGLVQPGGSLRLSCAASGFTFNVFAMGWFRQAPGKEREFVAAINWSDSRTDYADSVKGRFTISADNSKNTAYLQMNSLKPEDTAVYYCASGSDNRARELSRYEYVWGQGTLVTVSS
# B4: variant 5-13 (Fc fusion)
# VHH: EVQLVESGGGLVQPGGSLRLSCAASGFTFDYYTMGWFRQAPGKEREFVAAIRSSGGLFYADSVKGRFTISADNSKNTAYLQMNSLKPEDTAVYYCAAYLDGYSGSWGQGTLVTVSS
# B5: variant 5-29 (Fc fusion)
# VHH: EVQLVESGGGLVQPGGSLRLSCAASGFTFDDYPMGWFRQAPGKEREGVASVLRGGYTWYADSVKGRFTISADNSKNTAYLQMNSLKPEDTAVYYCAKDWATGLAWGQGTLVTVSS
# B6: variant 5-17 (Fc fusion)
# VHH: EVQLVESGGGLVQPGGSLRLSCAASGPTFSIYAMGWFRQAPGKEREFVAGIRWSDVYTQYADSVKGRFTISADNSKNTAYLQMNSLKPEDTAVYYCALDIDYRDWGQGTLVTVSS
# B7: variant 5-39 (Fc fusion)
# VHH: B6 VHH with P27V, F29L, S30D, I31L, S54T, V56A, Q59E, L98V
# B8: variant 5-23 (Fc fusion)
# VHH: EVQLVESGGGLVQPGGSLRLSCAASGSIFSIDVMGWFRQAPGKEREFVAAISWSGESTLYADSVKGRFTISADNSKNTAYLQMNSLKPEDTAVYYCAAFDGYSGSDWGQGTLVTVSS
# B9: variant 5-66 (Fc fusion)
# VHH: B8 VHH with S27N, I28T, S30T, D32N, S52N, S54N, E56G, S57T, S105I
# B10: variant 5-3 (Fc fusion)
# VHH: B8 VHH with A50G, E56D, S103T
# B11: variant 5-21 (Fc fusion)
# VHH: EVQLVESGGGLVQPGGSLRLSCAASGGTFTTYHMGWFRQAPGKEREFVAHISTGGATNYADSVKGRFTISADNSKNTAYLQMNSLKPEDTAVYYCATFPAIVTDSDYDLGNDWGQGTLVTVSS
# B12: variant 5-16 (Fc fusion)
# VHH: EVQLVESGGGLVQPGGSLRLSCAASGRTHSIYPMGWFRQAPGKERELVAAIHSGGATVYADSVKGRFTISADNSKNTAYLQMNSLKPEDTAVYYCAARRWIPPGPIWGQGTLVTVSS
# B13: variant 5-20 (Fc fusion)
# VHH: EVQLVESGGGLVQPGGSLRLSCAASGRTIVPYTMGWFRQAPGKERELVAAISPSAFTEYADSVKGRFTISADNSKNTAYLQMNSLKPEDTAVYYCAARRWGYDWGQGTLVTVSS
# notes: VHH-Fc
# B14: variant 5-15 (Fc fusion)
# VHH: EVQLVESGGGLVQPGGSLRLSCAASGFTFDGAAMGWFRQAPGKEREFVATIRWTNSTDYADSVKGRFTISADNSKNTAYLQMNSLKPEDTAVYYCARGRYGIVERWGQGTLVTVSS
# B15: variant 5-27 (Fc fusion)
# VHH: EVQLVESGGGLVQPGGSLRLSCAASGRANSINWMGWFRQAPGKEREFVATITPGGNTNYADSVKGRFTISADNSKNTAYLQMNSLKPEDTAVYYCAAAAGSTWYGTLYEYDWGQGTLVTVSS
# Target: CV S-protein construct 6 trimer TP31001F (SARS-CoV-2, UniProt P0DTC2 14-1208)
# Experiment: SPR
row,Binder,Kd
1,B1,1 nM
2,B2,0.4 nM
3,B3,7.2 nM
4,B4,3.8 nM
5,B5,1 nM
6,B6,18.9 nM
7,B7,37.6 nM
8,B8,4.2 nM
9,B9,98.9 nM
10,B10,5.6 nM
11,B11,10 nM
12,B12,1.9 nM
13,B13,1.1 nM
14,B14,2.3 nM
15,B15,110 nM
